Measured values: patent US5854025

Experiments:
[1] = target: type 2 IGF receptor on H35 (rat hepatoma) cells (rat); assay: displacement of 125I-IGF-II from H35 cells (type 2 IGF receptor); refolded preparation
[2] = target: type 2 IGF receptor on H35 (rat hepatoma) cells (rat); assay: displacement of 125I-IGF-II from H35 cells (type 2 IGF receptor); secreted preparation
[3] = target: insulin receptor on H35 cells (rat) (UniProt P15127); assay: displacement of 125I-insulin from H35 cells (insulin receptor)
[4] = target: type 2 IGF receptor on H35 (rat hepatoma) cells (rat); assay: displacement of 125I-IGF-II from H35 cells (type 2 IGF receptor)

Sequence of IGF-II (Q^37 Q^38) (ligand) (chain): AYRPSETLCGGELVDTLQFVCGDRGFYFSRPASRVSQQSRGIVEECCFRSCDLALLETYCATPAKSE
Sequence of wild-type IGF-II, refolded material (made by the HRP fusion route, pSD28, cyanogen bromide cleavage and refolding) (ligand) (chain): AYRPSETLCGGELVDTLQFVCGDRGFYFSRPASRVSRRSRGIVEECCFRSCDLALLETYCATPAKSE

IGF-II (Q^37 Q^38) (ligand)
IC50 [1]: 0.06 µg/mL
IC50 [2]: 0.03 µg/mL

insulin (ligand)
IC50 [3]: 4.8 ng/mL

recombinant IGF-II from a commercial supplier (Bachem), reference standard (ligand)
IC50 [4]: 0.018 µg/mL

wild-type IGF-II, refolded material (made by the HRP fusion route, pSD28, cyanogen bromide cleavage and refolding) (ligand)
IC50 [4]: 0.03 µg/mL
